In paper PMC9241078:

Legend:
Assay in all cases: potentiometry
Cterm120 = details: 298 K; 0.1 M KCl; none (peptide dissolved in 4 x 10^-3 M HCl); metal-free peptide. Ligand concentration is 0.5 mM in Methods, but the Table 3 footnote says 0.001 M.
Glu117 = details: 298 K, 0.1 M KCl, none (peptide dissolved in 4 x 10^-3 M HCl)
[1] = biological target: Glu132 (UniProt position 132, …--); details: 298 K; 0.1 M KCl; none (peptide dissolved in 4 x 10^-3 M HCl); metal-free peptide. Ligand concentration is 0.5 mM in Methods, but the Table 3 footnote says 0.001 M.
[2] = biological target: Cterm135 (UniProt position 135, AGEDAI-----); details: 298 K; 0.1 M KCl; none (peptide dissolved in 4 x 10^-3 M HCl); metal-free peptide. Ligand concentration is 0.5 mM in Methods, but the Table 3 footnote says 0.001 M.
[3] = metal-free peptide. Ligand concentration is 0.5 mM in Methods, but the Table 3 footnote says 0.001 M.

Row | Protein | pKa (Cterm120) | pKa (Glu117; Ni(II)-bound, metal to ligand 1:1 (NiH4L to NiH3L step)) | pKa (Glu117; [3]) | pKa [1] | pKa [2]
1 | DAHLAHIVVDAIAHASEDRR [BigR4 alpha5 domain peptide mutant H102A (L2) (Mycobacterium smegmatis; H102A)] | 3.35 | 5.61 | 6.10 | – | –
2 | DHHLAHIVVDAIAHASEDRR | 3.23 | – | 5.80 | – | –
3 | DHHLAHIVLDAVAHAGEDAI | – | – | – | 5.74 | 3.16
4 | DHHLAAIVVDAIAHASEDRR [BigR4 alpha5 domain peptide mutant H106A (L3) (Mycobacterium smegmatis; H106A)] | 2,97 | – | 5,91 | – | –
